The target of data set [1] is HIF1β (ARNT), endogenous (Mus musculus) (UniProt P53762). To be noted: 5mC at CpG (M.SssI); ChIP-qPCR in isogenic mouse ES cells. A general note: Quantitative PCR measures a nucleic acid by following its amplification.
Another data set deals with HIF1α-HIF1β heterodimer (UniProt Q61221+P53762). Put plainly: MST. Particulars: 5mC at CpG of RCGTG; 20 mM phosphate, 75 mM NaCl, 5 mM DTT, 0.05% Tween-20, pH 7.4, 25 C; scale: fold lower affinity.
For a further data set, the target named is HIF2α-HIF1β heterodimer (UniProt P97481+P53762). As to the kind of experiment: MST. To be noted: 5mC at CpG of RCGTG; 20 mM phosphate, 75 mM NaCl, 5 mM DTT, 0.05% Tween-20, pH 7.4, 25 C; scale: fold lower affinity.

“in vitro methylated human HIF binding region chr16:30,065,212-30,065,711”: the binding signal (fold reduction vs unmethylated) in data set [1] is 12.4.

In the case of methylated RCGTG ds oligonucleotide, the binding signal with HIF1α-HIF1β heterodimer and with HIF2α-HIF1β heterodimer was 15 throughout.
